Consider two molecules from paper PMC3948214 (Biochemistry, 2013).

What is called Kd is the free concentration of one partner at which half of the binding sites on the other are occupied at equilibrium, for simple one-to-one binding.

Data set [1] addresses HpFabZ (Helicobacter pylori) (UniProt B5Z920). Kind of data set: SPR. The note with it: cited from earlier work.
The data set “crystal structure” concerns the molecule itself. Put plainly: crystal structure.

Chain of HpFabZ (Helicobacter pylori) (B5Z920 whole entry): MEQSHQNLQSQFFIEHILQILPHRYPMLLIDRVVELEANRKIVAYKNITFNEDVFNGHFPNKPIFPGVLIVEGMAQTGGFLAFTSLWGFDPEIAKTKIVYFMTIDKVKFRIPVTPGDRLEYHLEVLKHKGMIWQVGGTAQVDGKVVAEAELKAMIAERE

Consider HpACP (from UniProt B5Z6T1), for which the Kd in data set [1] was 0.01 µM.

B1: RifDH10, the dehydratase domain from the terminal module (module 10) of the rifamycin polyketide synthase (domain or fragment, Amycolatopsis mediterranei, UniProt O54593 2569-2872, looked up)
chain: ADTASDAVSLGLAGADHPLLGAVVQLPQSDGLVFTSRLSLRSHPWLADHAVRDVVIVPGTGLVELAVRAGDEAGCPVLDELVIEAPLVVPRRGGVRVQVALGGPADDGSRTVDVFSLREDADSWLRHATGVLVPENRPRGTAAFDFAAWPPPEAKPVDLTGAYDVLADVGYGYGPTFRAVRAVWRRGSGNTTETFAEIALPEDARAEAGRFGIHPALLDAALHSTMVSAAADTESYGDEVRLPFAWNGLRLHAAGASVLRVRVAKPERDSLSLEAVDESGGLVVTLDSLVGRPVSNDQLTTAAG
Take B1: the binding result in the data set “crystal structure” was “binds”.
